Series [1] concerns the molecule itself. Put plainly: cryo-EM structure; apo-state WT hABCB6 in POPC:POPE (3:1) MSP2N2 nanodiscs, inward-facing, C2 symmetry, 3.6 A.
Series [2] concerns the molecule itself. Put plainly: cryo-EM structure; hABCB6[EQ] in POPC:POPE MSP2N2 nanodiscs, incubated with 5 mM ATP-Mg2+ for 30 min at 37 C, occluded conformation, C2 symmetry, 3.5 A.

Positions count from the first letter of the chain named. Numbers in names are those of the source.

B1: human ABCB6 (hABCB6), wild type, C-terminal Strep-tag (natural protein, UniProt Q9NP58 1-842, looked up)
chain: MVTVGNYCEAEGPVGPAWMQDGLSPCFFFTLVPSTRMALGTLALVLALPCRRRERPAGADSLSWGAGPRISPYVLQLLLATLQAALPLAGLAGRVGTARGAPLPSYLLLASVLESLAGACGLWLLVVERSQARQRLAMGIWIKFRHSPGLLLLWTVAFAAENLALVSWNSPQWWWARADLGQQVQFSLWVLRYVVSGGLFVLGLWAPGLRPQSYTLQVHEEDQDVERSQVRSAAQQSTWRDFGRKLRLLSGYLWPRGSPALQLVVLICLGLMGLERALNVLVPIFYRNIVNLLTEKAPWNSLAWTVTSYVFLKFLQGGGTGSTGFVSNLRTFLWIRVQQFTSRRVELLIFSHLHELSLRWHLGRRTGEVLRIADRGTSSVTGLLSYLVFNVIPTLADIIIGIIYFSMFFNAWFGLIVFLCMSLYLTLTIVVTEWRTKFRRAMNTQENATRARAVDSLLNFETVKYYNAESYEVERYREAIIKYQGLEWKSSASLVLLNQTQNLVIGLGLLAGSLLCAYFVTEQKLQVGDYVLFGTYIIQLYMPLNWFGTYYRMIQTNFIDMENMFDLLKEETEVKDLPGAGPLRFQKGRIEFENVHFSYADGRETLQDVSFTVMPGQTLALVGPSGAGKSTILRLLFRFYDISSGCIRIDGQDISQVTQASLRSHIGVVPQDTVLFNDTIADNIRYGRVTAGNDEVEAAAQAAGIHDAIMAFPEGYRTQVGERGLKLSGGEKQRVAIARTILKAPGIILLDEATSALDTSNERAIQASLAKVCANRTTIVVAHRLSTVVNADQILVIKDGCIVERGRHEALLSRGGVYADMWQLQQGQEETSEDTKPQTMER
notes: ABCB6, Homo sapiens, 842-amino acid protein; theoretical MW 94 kDa; TMD0 (residues 1-244) is in the protein but obscure in the map; PDB and EMDB ids are assigned by the order of the data availability sentence; also called WT hABCB6; hABCB6-WT; not shown: Strep-tag, C-terminal, kept
With B1, the binding result in series [1] is “binds”.

B2: human ABCB6 E752Q mutant (hABCB6[EQ]), C-terminal Strep-tag (natural protein, UniProt Q9NP58 1-842, looked up)
chain: B1 chain with E752Q
notes: ABCB6, Homo sapiens, 842-amino acid protein, with the Walker B mutation E752Q; Same construct as m1 with E752Q; Incubated with 5 mM ATP-Mg2+ (and 20 uM PPIX) before grid preparation; PDB and EMDB ids are assigned by the order of the data availability sentence; also called hABCB6 E752Q; not shown: Strep-tag, C-terminal, kept
Regarding B2, the binding result in series [2] is “binds”.

The values above are taken from publication PMC8313675, “Molecular insights into the human ABCB6 transporter” (Cell Discovery, 2021).
